Reference: patent publication US20130244938A1 (Stanford University, published 2013)
Where no end group is shown, it is not given here.

Tests used:
[1] = molecular target: T1, LGR7 (leucine-rich repeat-containing GPCR 7) (human) (UniProt Q9HBX9); test: cell-based or functional assay
T1 sequence (looked up): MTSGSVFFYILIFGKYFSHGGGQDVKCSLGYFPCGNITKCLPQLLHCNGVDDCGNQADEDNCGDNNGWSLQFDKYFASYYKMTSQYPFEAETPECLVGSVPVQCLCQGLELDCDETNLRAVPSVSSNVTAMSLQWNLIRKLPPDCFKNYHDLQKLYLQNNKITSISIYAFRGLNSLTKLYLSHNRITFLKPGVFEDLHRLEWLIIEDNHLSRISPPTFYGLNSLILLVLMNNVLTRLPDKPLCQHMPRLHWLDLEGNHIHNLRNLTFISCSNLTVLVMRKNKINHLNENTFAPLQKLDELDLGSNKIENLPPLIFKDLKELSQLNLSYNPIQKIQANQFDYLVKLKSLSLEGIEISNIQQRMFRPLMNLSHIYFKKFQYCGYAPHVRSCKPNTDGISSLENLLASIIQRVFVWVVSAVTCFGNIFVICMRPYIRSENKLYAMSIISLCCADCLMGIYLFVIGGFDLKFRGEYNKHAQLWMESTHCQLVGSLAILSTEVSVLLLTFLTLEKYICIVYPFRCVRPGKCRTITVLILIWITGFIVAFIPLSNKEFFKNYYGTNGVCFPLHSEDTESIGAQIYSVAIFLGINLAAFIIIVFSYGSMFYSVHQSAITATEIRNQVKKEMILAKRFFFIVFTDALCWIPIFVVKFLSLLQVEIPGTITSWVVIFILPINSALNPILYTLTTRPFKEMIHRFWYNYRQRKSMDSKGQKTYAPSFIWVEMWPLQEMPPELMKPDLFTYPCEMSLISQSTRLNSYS

[2] = molecular target: LGR8 (leucine-rich repeat-containing GPCR 8) (human) (UniProt Q8WXD0); test: cell-based or functional assay
[3] = molecular target: T2, LGR7 (leucine-rich repeat-containing GPCR 7) (human, UniProt Q9HBX9 1-757); test: cell-based or functional assay
T2 sequence (looked up): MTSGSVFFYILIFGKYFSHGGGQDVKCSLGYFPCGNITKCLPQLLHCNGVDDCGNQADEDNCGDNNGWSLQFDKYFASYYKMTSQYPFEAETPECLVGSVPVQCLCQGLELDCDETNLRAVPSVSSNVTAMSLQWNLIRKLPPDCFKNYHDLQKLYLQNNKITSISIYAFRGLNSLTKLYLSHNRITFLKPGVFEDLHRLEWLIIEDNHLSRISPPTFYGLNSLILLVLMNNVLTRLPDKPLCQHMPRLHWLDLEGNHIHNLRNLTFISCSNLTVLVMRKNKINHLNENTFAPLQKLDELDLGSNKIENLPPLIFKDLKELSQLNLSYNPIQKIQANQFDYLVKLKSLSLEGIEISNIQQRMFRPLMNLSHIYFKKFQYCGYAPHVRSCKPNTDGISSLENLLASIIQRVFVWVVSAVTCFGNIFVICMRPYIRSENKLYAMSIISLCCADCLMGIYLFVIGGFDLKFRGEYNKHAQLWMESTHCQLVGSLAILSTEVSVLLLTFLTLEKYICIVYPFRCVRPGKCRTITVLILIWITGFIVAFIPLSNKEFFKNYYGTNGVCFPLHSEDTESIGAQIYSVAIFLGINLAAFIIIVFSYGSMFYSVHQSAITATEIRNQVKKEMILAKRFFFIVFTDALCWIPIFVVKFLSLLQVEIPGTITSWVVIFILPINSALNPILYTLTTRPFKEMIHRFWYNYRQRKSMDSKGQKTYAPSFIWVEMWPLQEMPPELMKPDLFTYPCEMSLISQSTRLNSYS

[4] = molecular target: T2, LGR7 (leucine-rich repeat-containing …); test: competition with 125I-RLN2 tracer on LGR7-expressing HEK293T cells
Method: (§1) To determine the binding characteristics of wild type and mutant peptides, HEK293T cells expressing LGR7 or LGR8 were grown to 90% confluence, collected by centrifugation at 3000×g for 2 min, and washed two times in 2 ml of ice-cold binding buffer. Cells were resuspended in ice-cold binding buffer, and aliquots of cell suspension were incubated with increasing doses of purified recombinant peptides in the presence of 0.025 pmol of ¹²⁵I-labeled RLN2 tracer (Phoenix Pharmaceuticals, Burlingame, Calif.) at room temperature for 2 h. After washing three times in an ice-cold binding buffer, radioactivity bound to the cells was measured using a y-counter (EG&G Wallace, Gaithersburg, Md.). Total binding was determined in the absence, and nonspecific binding in the presence, of 25 nmol of unlabeled RLN2. In regular assays, total binding was ˜30,000 cpm, and nonspecific binding amounted to less than 20% of the total binding. Data points were collected in triplicate, and similar results were obtained in at least two independent assays.

[5] = molecular target: T3, LGR8 (leucine-rich repeat-containing GPCR 8) (human, UniProt Q8WXD0 1-754); test: cell-based or functional assay
[6] = molecular target: T3, LGR8 (leucine-rich repeat-containing …); test: competition with 125I-RLN2 tracer on LGR8-expressing HEK293T cells
Method: as §1

[7] = molecular target: T3, LGR8 (leucine-rich repeat-containing …); test: cell-based or functional assay; remark: listed apart in the source
[8] = molecular target: T3, LGR8 (leucine-rich repeat-containing …); test: competition with 125I-RLN2 on LGR8-expressing HEK293T cells (Table 2 cell: ND, pIC50 not measurable)
Method: as §1

T3 sequence (Q8WXD0 whole entry): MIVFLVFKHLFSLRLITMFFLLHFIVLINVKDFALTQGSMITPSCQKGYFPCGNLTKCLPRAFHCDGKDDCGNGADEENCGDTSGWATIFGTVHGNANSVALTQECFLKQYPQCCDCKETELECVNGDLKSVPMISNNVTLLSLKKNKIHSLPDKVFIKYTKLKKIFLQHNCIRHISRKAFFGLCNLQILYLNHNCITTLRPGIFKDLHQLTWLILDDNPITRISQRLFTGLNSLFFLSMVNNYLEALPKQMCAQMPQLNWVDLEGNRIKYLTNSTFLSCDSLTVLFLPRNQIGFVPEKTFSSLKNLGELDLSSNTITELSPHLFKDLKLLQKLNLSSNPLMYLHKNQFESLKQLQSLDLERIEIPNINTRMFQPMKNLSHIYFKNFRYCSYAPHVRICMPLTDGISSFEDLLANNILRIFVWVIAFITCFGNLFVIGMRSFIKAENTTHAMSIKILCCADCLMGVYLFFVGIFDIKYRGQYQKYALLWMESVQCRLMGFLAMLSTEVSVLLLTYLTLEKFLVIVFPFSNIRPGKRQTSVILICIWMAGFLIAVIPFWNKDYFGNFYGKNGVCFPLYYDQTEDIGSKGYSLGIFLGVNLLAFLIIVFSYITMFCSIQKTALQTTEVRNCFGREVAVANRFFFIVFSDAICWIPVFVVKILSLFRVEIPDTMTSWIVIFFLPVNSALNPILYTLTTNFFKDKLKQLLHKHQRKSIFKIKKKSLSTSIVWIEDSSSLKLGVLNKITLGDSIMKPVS
LGR8 (leucine-rich repeat-containing GPCR 8) (human), sequence (Q8WXD0 whole entry): as above

Row | Molecule | pEC50, stimulation of cAMP production in LGR7-expressing HEK293T cells [3] | pIC50 [4] | pEC50, stimulation of cAMP production in LGR8-expressing HEK293T cells [5] | pIC50 [6] | further results
1 | WT RLN2 (His1) (ligand) |  |  |  |  | pEC50, stimulation of cAMP production in LGR7-expressing HEK293T cells [1]: 8.66
2 | WT RLN2 (His2) (ligand) |  |  |  |  | pEC50, stimulation of cAMP production in LGR7-expressing HEK293T cells [1]: 8.77
3 | WT INSL3 (recombinant human insulin-like 3, Myc- and His6-tagged) (ligand, not shown: small tags and cut ends) chain 1: PTPEMREKLCGHHFVRALVRVCGGPRWSTEAHHHHHH chain 2: AAATNPARYCCLSGCTQQDLLTLCPY |  |  |  |  | pEC50, stimulation of cAMP production in LGR8-expressing HEK293T cells [2]: 9.03
4 | Nontagged human RLN2 peptide (ligand, not fully specified (bridges); ends and bridges not checked, Used as a standard; also called Nontagged RLN2; nontagged wild type RLN2 peptide) chain 1: SWMEEVIKLCGRELVRAQIAICGMSTWS chain 2: QLYSALANKCCHVGCTKRSLARFC | 6.53 | 8.78 |  |  | 
5 | WT RLN3 (recombinant human relaxin 3, Myc- and His6-tagged) (ligand, not shown: small tags and cut ends, not fully specified; ends and bridges not checked; also: N-terminal Myc epitope tag) chain 1: RAAPYGVRLCGREFIRAVIFTCGGSRWHHHHHH chain 2: DVLAGLSSSCCKWGCSKSEISSLC |  |  |  |  | pEC50, stimulation of cAMP production in LGR7-expressing HEK293T cells [1]: 7.73
6 | WT RLN2 (recombinant wild type human RLN2, Myc- and His6-tagged) (ligand, not shown: small tags and cut ends, also called wild type RLN2; wild type peptide) chain 1: SWMEEVIKLCGRELVRAQIAICGMSTWSHHHHHH chain 2: QLYSALANKCCHVGCTKRSLARFC | 9.3 | 8.72 | 7.41 | 7.9 | 
7 | RLN2^A19-20 (ligand, not shown: small tags and cut ends, It is read here as both residues changed to alanine) chain 1: SWMEEVIKLCGRELVRAQIAICGMSTWSHHHHHH chain 2: QLYSALANKCCHVGCTKRAAARFC | 8.56 | 8.21 | 8.41 | 7.51 | 
8 | RLN2 T^A16A (ligand, not shown: small tags and cut ends, not fully specified; ends and bridges not checked; also: N-terminal Myc epitope tag, Construct with the 8-amino acid linker, processed to the mature two-chain form) chain 1: SWMEEVIKLCGRELVRAQIAICGMSTWSHHHHHH chain 2: QLYSALANKCCHVGCAKRSLARFC | 9.75 | 8.4 | 8.04 | 7.74 | maximum LGR8-activation activity (cAMP production), against wild type RLN2 [7]: 2 fold
9 | RLN2 R^A18A (ligand, not shown: small tags and cut ends) chain 1: SWMEEVIKLCGRELVRAQIAICGMSTWSHHHHHH chain 2: QLYSALANKCCHVGCTKASLARFC | 9.67 | 8.42 | 7.56 | 7.46 | 
10 | RLN2 R^A22A (ligand, not shown: small tags and cut ends, not fully specified; ends and bridges not checked; also: N-terminal Myc epitope tag, Construct with the 8-amino acid linker, processed to the mature two-chain form) chain 1: SWMEEVIKLCGRELVRAQIAICGMSTWSHHHHHH chain 2: QLYSALANKCCHVGCTKRSLAAFC | 10 | 8.42 | 7.51 | 6.8 | 
11 | RLN2^A22-23 (ligand, not shown: small tags and cut ends, It is read here as both residues changed to alanine) chain 1: SWMEEVIKLCGRELVRAQIAICGMSTWSHHHHHH chain 2: QLYSALANKCCHVGCTKRSLAAAC | 8.87 | 7.5 |  |  | binding result [8]: no binding
